Read-outs that look alike come from different tables or passages of the source.
B1: RPP29 18-127 (protein)
chain: GSYQEIIGRTWIFRGAHRGRVNKKNIVWHELIGLKVRVVNSTHPGYVGIEGYVIDETRNMLVIAGENKVWKVPKDVCIFEFETWDGTKIKISGEKLVGRPEMRLKKRWRK
B2: RPP29 1-127 (protein)
chain: MWRNSEERENRTSGRSQGSYQEIIGRTWIFRGAHRGRVNKKNIVWHELIGLKVRVVNSTHPGYVGIEGYVIDETRNMLVIAGENKVWKVPKDVCIFEFETWDGTKIKISGEKLVGRPEMRLKKRWRK

How the values were obtained:
[1] = molecular target: T1, RPP21 (Pyrococcus furiosus, UniProt Q8U0H6); experiment: ITC
T1 chain: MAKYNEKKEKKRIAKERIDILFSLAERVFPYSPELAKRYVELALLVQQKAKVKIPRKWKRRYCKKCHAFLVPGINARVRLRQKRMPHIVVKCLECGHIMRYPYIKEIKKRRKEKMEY

[2] = molecular target: T1, RPP21; experiment: ITC

Binder	Kd [1] [nM]	Kd [2] [nM]
B1	230	
B2	250	250
